In patent US20200277377A1 (WUXI BIOLOGICS SHANGHAI, published 2020):
Changes are numbered by the printed parent chain.

What was measured:
Assay in all cases: capture ELISA, alanine scan, vs silent alanine substitutions
[1] = molecular target: T1, hCTLA4_ECD.His point mutant K65 to alanine (human, UniProt P16410 36-161)
T1 construct: extracellular domain; alanine-scan mutein, HEK293F supernatant
T1 sequence (looked up): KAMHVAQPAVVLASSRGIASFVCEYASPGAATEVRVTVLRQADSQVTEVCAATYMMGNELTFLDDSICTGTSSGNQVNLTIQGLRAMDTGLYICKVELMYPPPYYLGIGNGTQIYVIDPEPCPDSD
Method in brief: (§1)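 Secreted His-tagged CTLA4 point muteins in quantified supernatant were captured and probed with HRP anti-His antibody and TMB. Absorbance normalised to the mean of control mutants; epitope residues were assigned with a binding fold-change cutoff of <0.55.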

[2] = molecular target: T2, hCTLA4_ECD.His point mutant M90 to alanine (human, UniProt P16410 36-161)
T2 construct: extracellular domain; alanine-scan mutein, HEK293F supernatant
T2 sequence (looked up): T1 sequence (looked up) with A30K, M55A
Method in brief: as §1

[3] = molecular target: T3, hCTLA4_ECD.His point mutant E132 to alanine (human, UniProt P16410 36-161)
T3 construct: extracellular domain; alanine-scan mutein, HEK293F supernatant
T3 sequence (looked up): T1 sequence (looked up) with A30K, E97A
Method in brief: as §1

[4] = molecular target: T4, hCTLA4_ECD.His point mutant L141 to alanine (human, UniProt P16410 36-161)
T4 construct: extracellular domain; alanine-scan mutein, HEK293F supernatant
T4 sequence (looked up): T1 sequence (looked up) with A30K, L106A
Method in brief: as §1

[5] = molecular target: T5, hCTLA4_ECD.His point mutant L126 to alanine (human, UniProt P16410 36-161)
T5 construct: extracellular domain; alanine-scan mutein, HEK293F supernatant
T5 sequence (looked up): T1 sequence (looked up) with A30K, L91A
Method in brief: as §1

[6] = molecular target: T6, hCTLA4_ECD.His point mutant V131 to alanine (human, UniProt P16410 36-161)
T6 construct: extracellular domain; alanine-scan mutein, HEK293F supernatant
T6 sequence (looked up): T1 sequence (looked up) with A30K, V96A
Method in brief: as §1

[7] = molecular target: T7, hCTLA4_ECD.His point mutant V81 to alanine (human, UniProt P16410 36-161)
T7 construct: extracellular domain; alanine-scan mutein, HEK293F supernatant
T7 sequence (looked up): T1 sequence (looked up) with A30K, V46A
Method in brief: as §1

[8] = molecular target: T8, hCTLA4_ECD.His point mutant T72 to alanine (human, UniProt P16410 36-161)
T8 construct: extracellular domain; alanine-scan mutein, HEK293F supernatant
T8 sequence (looked up): T1 sequence (looked up) with A30K, T37A
Method in brief: as §1

[9] = molecular target: T9, hCTLA4_ECD.His point mutant K130 to alanine (human, UniProt P16410 36-161)
T9 construct: extracellular domain; alanine-scan mutein, HEK293F supernatant
T9 sequence (looked up): T1 sequence (looked up) with A30K, K95A
Method in brief: as §1

[10] = molecular target: T10, hCTLA4_ECD.His point mutant Q148 to alanine (human, UniProt P16410 36-161)
T10 construct: extracellular domain; alanine-scan mutein, HEK293F supernatant
T10 sequence (looked up): T1 sequence (looked up) with A30K, Q113A
Method in brief: as §1

[11] = molecular target: T11, hCTLA4_ECD.His point mutant N145 to alanine (human, UniProt P16410 36-161)
T11 construct: extracellular domain; alanine-scan mutein, HEK293F supernatant
T11 sequence (looked up): T1 sequence (looked up) with A30K, N110A
Method in brief: as §1

[12] = molecular target: T12, hCTLA4_ECD.His point mutant T147 to alanine (human, UniProt P16410 36-161)
T12 construct: extracellular domain; alanine-scan mutein, HEK293F supernatant
T12 sequence (looked up): T1 sequence (looked up) with A30K, T112A
Method in brief: as §1

[13] = molecular target: T13, hCTLA4_ECD.His point mutant T82 to alanine (human, UniProt P16410 36-161)
T13 construct: extracellular domain; alanine-scan mutein, HEK293F supernatant
T13 sequence (looked up): T1 sequence (looked up) with A30K, T47A
Method in brief: as §1

B1: W3162_1.154.8-z35-uAb.IgG1K (antibody, V domains shown)
VH: QVQLVQSGAEVKKPGSSVKVSCKASGYTFTNYFMNWVRQAPGQGLEWMGRVDPEQGRADYAEKFKKRVTITADKSTSTAYMELSSLRSEDTAVYYCARRAMDNYGFAYWGQGTLVTVSS
VL: EIVLTQSPDFQSVTPKEKVTITCSANSALSYMYWYQQKPDQSPKLWVHGTSNLASGVPSRFSGSGSGTDFTLTINSLEAEDAATYYCHHWSNTQWTFGGGTKVEIK
notes: Humanized; label says IgG1K
[1]
  Fold change: 0.351 fold

B2: W3162-1.146.19-z12-uAb.IgG1K (antibody, V domains shown)
VH: QVQLQESGPGLVKPSETLSLTCSVTYHTITSGYDWTWIRKPPGKGMEWIGYISYSGNTNYNPSLKSRVTISRDTSKNQFFLKLSSVTAADTAVYYCASMMVPHYYVMDAWGQGTLVTVSS
VL: DIVMTQTPLSLSVTPGQPASISCRSSQSLLNSDGNTYLYWYLQKPGQSPQLLIYLVSKLGSGVPNRFSGSGSGTDFTLKISRVEAEDVGVYYCVQGTHDPWTFGGGTKVEIK
notes: Humanized; label says IgG1K
[2]
  Fold change: 0.492 fold
[3]
  Fold change: 0.457 fold
[4]
  Fold change: 0.486 fold
[5]
  Fold change: 0.398 fold
[6]
  Fold change: 0.504 fold
[7]
  Fold change: 0.191 fold
[8]
  Fold change: 0.541 fold
[9]
  Fold change: 0.348 fold
[10]
  Fold change: 0.5 fold
[11]
  Fold change: 0.196 fold
[12]
  Fold change: 0.486 fold
[13]
  Fold change: 0.436 fold
